Source: publication PMC8695127 (2021)

B1: TCR6.3 (TCR)
alpha TRAV35 TRAJ42 CDR3: CAGMNYGGSQGNLIF
beta TRBV6-3 TRBJ1-2 CDR3: CASSYRGAYGYTF
B2: TCR4.1 (TCR)
alpha TRAV35 TRAJ42 CDR3: CAGMNYGGSQGNLIF
beta TRBV4-1 TRBJ1-2 CDR3: CASSQGVGYTF

What was measured:
[1] = molecular target: T1, SARS-CoV-2 spike (S) protein peptide on HLA-DPA1*01:03 / HLA-DPB1*04:01 (human); assay: multimer staining
T1 peptide: TFEYVSQPFLMDLE

[2] = molecular target: T2, SARS-CoV-2 spike (S) protein peptide on HLA-DPA1*01:03 / HLA-DPB1*04:01 (human); assay: activation reporter or marker
T2 peptide: CTFEYVSQPFLMDLE

[3] = molecular target: T3, SARS-CoV-2 spike (S) protein peptide on HLA-DPA1*01:03 / HLA-DPB1*04:01 (human); assay: multimer staining
T3 peptide: TFEYVSQPFLMDLE

Row | Binder | binding result [1] | binding result [2] | binding result [3]
1 | B1 | recognises | recognises | 
2 | B2 | recognises | recognises | recognises
